Data published in the RNAGym collection of RNA variant scans (doi:10.7554/elife.90254).

B1: LINE1-full (parent)
chain: UACGUAGGUGGUUUUCCCCUGAUAGUGCUAAGGGGGCCUGGAAGUUUGGACUGGGCAGAGCUCAACACAGCGUGGCAAAGUGGCUGUGGCUAGACUGCCUCUCUGGAUUCCUCGUCACUCAGCAGGGCAUCUCUGAGAGAAAUGCC

Variants of: B1
Assay: self-cleavage, relative activity (ratio to wild type); higher = more cleavage; in vitro, sequencing; the parent is a self-cleaving ribozyme

Going from A57U U87A to A57U G139U, the self-cleavage rises from 0.05 to 0.11.

Going from A59G A94G to A59G A94U, the self-cleavage falls from 0.23 to 0.07.

First: A57U A129U
Second: A59G C146U
The self-cleavage of the first is lower: 0.11 for the first, 0.12 for the second.

Going from A59G A78G to A57U G60C, the self-cleavage falls from 0.06 to 0.05.

First: A57U G60A
Second: A57U G135U
The self-cleavage of the first is lower: 0.04 for the first, 0.08 for the second.

Going from A57U G144U to A57U C71U, the self-cleavage falls from 0.3 to 0.02.

Compared with A59G A92G, A59G C63U is higher in self-cleavage: 0.04 for the first, 0.05 for the second.

Going from A57G U100C to A57U U132C, the self-cleavage falls from 1.99 to 0.14.

Compared with G58A A129U, G58A A129G is lower in self-cleavage: 0.06 for the first, 0.03 for the second.

Going from A59G A77G to G58U U130C, the self-cleavage falls from 0.15 to 0.05.

Compared with A59G C133A, A59G C133U is higher in self-cleavage: 0.04 for the first, 0.08 for the second.

First: A57G G137A
Second: A59G G89U
The self-cleavage of the first is higher: 0.99 for the first, 0.02 for the second.

Going from A59G G89A to A57U G114A, the self-cleavage rises from 0.01 to 0.07.

Compared with A59G G93U, A57G U87A is higher in self-cleavage: 0.03 for the first, 0.08 for the second.

Compared with A57U U81A, A57U U81C is higher in self-cleavage: 0.05 for the first, 0.12 for the second.

Compared with A59G A124U, A57U U102C is lower in self-cleavage: 0.14 for the first, 0.13 for the second.

Compared with A57G U143C, A57G U143A is higher in self-cleavage: 0.81 for the first, 0.84 for the second.

Compared with A59C A77U, A59G A107U is lower in self-cleavage: 0.6 for the first, 0.04 for the second.

A57U A92G and A57U A92U are the same in self-cleavage: 0.07 for the first, 0.07 for the second.

First: G58U G114A
Second: A57U A94U
The self-cleavage of the first is lower: 0.03 for the first, 0.04 for the second.

Compared with A57U A94G, A57U U104C is higher in self-cleavage: 0.14 for the first, 0.15 for the second.

First: A57U U109C
Second: G58A U115C
The self-cleavage of the first is lower: 0.03 for the first, 0.06 for the second.

First: G58A U115A
Second: A57G C120A
The self-cleavage of the first is lower: 0.1 for the first, 0.93 for the second.

First: A57U U112C
Second: A57U A136G
The self-cleavage of the first is lower: 0.01 for the first, 0.11 for the second.

A57G C68A and A57U U96C are the same in self-cleavage: 0.06 for the first, 0.06 for the second.

Compared with A57U U96A, A57U U96G is lower in self-cleavage: 0.52 for the first, 0.22 for the second.

Compared with A59G C110U, A59G A141U is higher in self-cleavage: 0.1 for the first, 0.2 for the second.

Going from A59G A141G to A57U U143A, the self-cleavage rises from 0.08 to 0.11.

Going from A57G U112A to A59G A129G, the self-cleavage falls from 0.99 to 0.07.

A59G G75A and A59C U87A are the same in self-cleavage: 0.04 for the first, 0.04 for the second.

Compared with A57U G126U, A57U G83U is lower in self-cleavage: 0.1 for the first, 0.02 for the second.

Going from G58U U115C to A57U U91A, the self-cleavage rises from 0.04 to 0.07.

Going from A57U U91C to A57U A64G, the self-cleavage rises from 0.04 to 0.1.

Compared with A57G C116U, A59G C71A is lower in self-cleavage: 0.71 for the first, 0.06 for the second.

Going from A57G C98G to A57G G89A, the self-cleavage falls from 0.07 to 0.04.

Going from G58U G80A to G58A A107G, the self-cleavage rises from 0 to 0.04.

First: A57U A78G
Second: G58A A117U
The self-cleavage of the first is lower: 0.03 for the first, 0.05 for the second.

First: G58A A117C
Second: G58U G137U
The self-cleavage of the first is higher: 0.1 for the first, 0.03 for the second.

First: A59G A138U
Second: A57G C61U
The self-cleavage of the first is higher: 0.12 for the first, 0.05 for the second.

Going from A59G C61G to A57U U115A, the self-cleavage rises from 0 to 0.09.

A59G G70C and G58U A141G are the same in self-cleavage: 0.04 for the first, 0.04 for the second.

Compared with G58A U143C, A57U A65U is higher in self-cleavage: 0 for the first, 0.06 for the second.
